Experimental data taken from patent US12398199 (SYSVAX, dated 2025).

B1: NBS1-2 (VHH)
VHH: QVQLVESGGGLVQAGDSLRLACAATGRTLSNYIMGWFRQAPGKEPLFVAAISRSGVITKYADSVEGRFTISRDNAKNTAYLQMTSLEPEDTAVYYCAASSSKYMATREYDYWGQGTQVTVSS
notes: also called XBS1-2; nano antibody NBS1-2
B2: NBS1-3 (VHH)
VHH: QVQLVESGGGLVQPGASLRLSCAASGRTFSSTGMGWFRQAPGKEREFVAAISGDGDTTYYADSVKGRFTISRDNAKNTVYLQMNSLKPWDTAVYYCASTRFTWGLYSDFVNSYEYDAWGQGTPVTVSS
notes: also called nano antibody NBS1-3
B3: NBS1-57 (VHH)
VHH: QVQLVESGGGLVQPGASLRLFCVASGRTFSSTGMGWFRQAPGKEREFVAAISGPGDTTYYVDSVKGRFTISRDNAKNTVYLQMNSLKPEDTAVYYCASAGFTWGLYSDFVNSYEYNYWGQGTPVTVSS
notes: also called nano antibody NBS1-57
B4: NBS1-10 (VHH)
VHH: QVQLVESGGGLVQPGGSLRLSCAASGRTFSSTGMGWFRQGPGKEREFVAAISGDGDTTYYADSVKGRFTISRDNAKNTVYLQMNSLKPEDTAVYYCASARFTWGLYSDFVNSYEYDAWGQGTPVTVSS
notes: also called nano antibody NBS1-10

The binders below were run against antigen RBD-FC protein (SARS-CoV-2 RBD protein) (SARS-CoV-2, UniProt P0DTC2 319-541) (assay: thin film interference (Gator), RBD-Fc captured on anti-human Fc probe, nano antibody in solution).
Procedure: In this example, an instrument Gator® probe life was used to detect an intermolecular interaction with a thin film interference method. A sample to be detected with a concentration not less than 80% and an antigen RBD-FC protein (SARS-CoV-2 RBD protein) with a concentration not less than 90% were prepared.
2. Experimental Method: 1) Detection method of NBS1-2 sample: the nano antibody was detected with an immobilized antigen RBD-Fc (100 nM); the probe type used was the anti-human Fc antibody; and the NBS1-2 was diluted to 60,000 nM, 30,000 nM, 15,000 nM, 7,500 nM, 3,750 nM, 1,875 nM, 937.5 nM, and 0 nM with the Q buffer. 2) Detection method of NBS1-3 sample: the nano antibody was detected with the immobilized antigen RBD-Fc (100 nM); the probe type used was the anti-human Fc antibody; and the NBS1-3 was diluted to 25 nM, 12.5 nM, 6.25 nM, 3.18 nM, 1.56 nM, 0.78 nM, and 0 nM with the Q buffer. 3) Detection method of NBS1-10 sample: the nano antibody was detected with the immobilized antigen RBD-Fc (100 nM); the probe type used was the anti-human Fc antibody; and the NBS1-10 was diluted to 25 nM, 12.5 nM, 6.25 nM, 3.18 nM, 1.56 nM, 0.78 nM, and 0 nM with the Q buffer.
4) Detection method of NBS1-57 sample: the nano antibody was detected with the immobilized antigen RBD-Fc (100 nM); the probe type used was the anti-human Fc antibody; and the NBS1-57 was diluted to 25 nM, 12.5 nM, 6.25 nM, 3.18 nM, 1.56 nM, 0.78 nM, and 0 nM with the Q buffer.

**Q.** Which results are given for B1?
**A.** Kd: 1410 nM; koff: 0.00127 s⁻¹; kon: 895 M⁻¹ s⁻¹

**Q.** Which results are given for B2?
**A.** Kd: 0.0301 nM; koff: 7.16e-05 s⁻¹; kon: 2.38e+06 M⁻¹ s⁻¹

**Q.** Which results are given for B3?
**A.** Kd: 1.29 nM; koff: 0.00491 s⁻¹; kon: 3.8e+06 M⁻¹ s⁻¹

**Q.** B4 was tested. Which Kd did it give?
**A.** The Kd was 1.31 nM.

**Q.** What about the koff of the same binder?
**A.** The koff was 0.00311 s⁻¹.

**Q.** What about the kon of the same binder?
**A.** The kon was 2.37e+06 M⁻¹ s⁻¹.
